Data on 1 molecule can be found in paper PMC7807878, “Development of an engineered peptide antagonist against periostin to overcome doxorubicin resistance in breast cancer” (BMC Cancer, 2021).

The assay addresses T1, recombinant PN (rPN) (UniProt Q15063 22-836).
T1 construct: periostin (PN), recombinant, bought; also called periostin; source: bought: BioVendor (RD172045025)
T1 sequence (looked up): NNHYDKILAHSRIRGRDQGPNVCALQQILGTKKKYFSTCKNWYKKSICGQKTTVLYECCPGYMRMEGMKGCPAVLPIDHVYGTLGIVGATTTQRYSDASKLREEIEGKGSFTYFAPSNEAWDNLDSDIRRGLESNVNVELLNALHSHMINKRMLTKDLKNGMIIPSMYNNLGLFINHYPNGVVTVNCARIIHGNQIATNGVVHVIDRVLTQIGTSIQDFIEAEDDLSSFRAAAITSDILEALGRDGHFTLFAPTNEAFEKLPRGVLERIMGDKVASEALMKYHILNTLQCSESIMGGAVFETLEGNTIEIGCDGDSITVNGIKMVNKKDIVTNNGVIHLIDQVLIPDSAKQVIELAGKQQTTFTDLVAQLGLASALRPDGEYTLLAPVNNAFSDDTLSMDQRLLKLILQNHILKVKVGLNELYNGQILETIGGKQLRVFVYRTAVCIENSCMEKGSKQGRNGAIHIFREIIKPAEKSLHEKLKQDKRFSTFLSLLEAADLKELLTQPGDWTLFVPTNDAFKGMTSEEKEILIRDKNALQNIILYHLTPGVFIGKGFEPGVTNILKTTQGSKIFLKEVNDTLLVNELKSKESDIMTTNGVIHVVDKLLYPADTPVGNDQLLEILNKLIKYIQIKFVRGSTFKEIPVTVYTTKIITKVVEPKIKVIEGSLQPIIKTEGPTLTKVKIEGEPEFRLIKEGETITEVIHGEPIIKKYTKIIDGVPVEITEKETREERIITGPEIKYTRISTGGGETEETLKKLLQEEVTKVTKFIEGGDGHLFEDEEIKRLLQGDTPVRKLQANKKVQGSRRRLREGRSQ
In words: ITC; MicroCal PEAQ-ITC; 700 nM rPN (or BSA) and 100 nM plain anti-PN peptide in 50 mM Tris, 150 mM NaCl, pH 7.5, in syringe and cell compartments. The following applies: both partners purified. On the technique in general: ITC needs no label: the signal is the heat of the interaction.

B1: plain anti-PN peptide (peptide)
peptide: TFATHGKHWAAP
notes: The methods mention C-terminal amidation after describing the FITC-labelled form; it is not clear whether the plain peptide is amidated too; also called candidate anti-PN peptide; source: synthetic peptide (ordered from Syn Peptide company, Shanghai)
Take B1: the Kd was 1 pM.

As usually defined, the Kd is the free concentration of one partner at which half of the binding sites on the other are occupied at equilibrium, for simple one-to-one binding.
